Experimental data published in the Human Domainome abundance scans (Beltran et al. 2025).

B1: Ankyrin repeat and SOCS box protein 14, residues 532 to 572; numbered along this chain, A6NK59 (parent)
chain: RSLKHLCRLKIRKCMGRLHLRCPVFMSFLPLPNRLKAYVLY

Variants of: B1
Test: abundance fitness (aPCA) (normalised: wild type 0, dead -1); higher = more abundant; growth selection in yeast, the domain comes from the species named
Details: Homo sapiens

Abundance fitness: each site, then its substitutions
K36: P -0.725, E -0.732, S -0.662, I -0.274, Q -0.374, R -0.294, L -0.242, T -0.423, V -0.051, N -0.932, M -0.398, W -0.062, Y -0.335, F -0.022, A -0.382, G -0.599, C -0.398
L35: E -1.12, W 0.044, S -0.66, H -0.955, G -1.13, D -1.24, T -0.966, R -1.28, V -0.103, K -1.29, I -0.18, C -0.135, A -0.466, N -0.729, P -0.913
L40: A -0.075, V -0.132, P -0.405, S -0.092, R 0.055, E 0.031, D -0.113, Q -0.192, T -0.247, G -0.312
Y38: I -0.293, E -0.599, H -0.535, T -0.478, D -0.681, V -0.558, S -0.436, C -0.622, K -0.485, R -0.446, A -0.343, Q -0.45, P -0.731, L -0.346, M -0.454, W 0.295, G -0.59
A37: P -0.995, Q 0.083, L -0.404, C -0.091, V -0.482, W -0.502, R -0.002, H -0.118, S -0.143, E 0.021, G -0.291, M -0.207
V39: G -0.743, S -0.779, D -0.95, I -0.022, Q -1.3, T -0.186, A -0.361, L -0.098, W -0.43
Y41: R 0.373, W 0.072, M 0.257, T 0.169, H 0.12, N -0.052, G 0.368, V 0.398, C 0.146, S 0.356
R34: Y -0.155, T -0.203, W 0.022, V -0.447, S -0.218
